Data reported in publication PMC3868223 (Cytokine, 2013).

Biological target: T1, IFN-γR1 (ligand-binding chain of the interferon-gamma receptor), fused to a fluorescent protein (UniProt P15260 18-489)
T1 sequence (looked up): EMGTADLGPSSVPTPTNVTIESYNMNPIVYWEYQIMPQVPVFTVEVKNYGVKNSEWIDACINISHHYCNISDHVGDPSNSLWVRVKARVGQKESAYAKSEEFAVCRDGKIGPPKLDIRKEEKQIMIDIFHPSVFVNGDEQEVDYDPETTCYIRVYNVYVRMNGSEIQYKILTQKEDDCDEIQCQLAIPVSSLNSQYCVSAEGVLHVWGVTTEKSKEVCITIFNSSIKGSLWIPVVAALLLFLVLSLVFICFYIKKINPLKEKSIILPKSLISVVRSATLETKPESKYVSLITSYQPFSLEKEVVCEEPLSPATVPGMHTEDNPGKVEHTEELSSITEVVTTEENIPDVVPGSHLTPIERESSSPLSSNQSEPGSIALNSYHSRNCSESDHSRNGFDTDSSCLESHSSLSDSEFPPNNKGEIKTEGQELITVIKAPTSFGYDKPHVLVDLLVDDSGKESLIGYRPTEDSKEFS
Assay: FRET or BRET

B1: IFN-γR2 (accessory chain of the interferon-gamma receptor), fused to a fluorescent protein (receptor, UniProt P38484 22-337, looked up)
chain: APPDPLSQLPAPQHPKIRLYNAEQVLSWEPVALSNSTRPVVYQVQFKYTDSKWFTADIMSIGVNCTQITATECDFTAASPSAGFPMDFNVTLRLRAELGALHSAWVTMPWFQHYRNVTVGPPENIEVTPGEGSLIIRFSSPFDIADTSTAFFCYYVHYWEKGGIQQVKGPFRSNSISLDNLKPSRVYCLQVQAQLLWNKSNIFRVGHLSNISCYETMADASTELQQVILISVGTFSLLSVLAGACFFLVLKYRGLIKYWFHTPPSIPLQIEEYLKDPTQPILEALDKDSSPKDDVWDSVSIISFPEKEQEDVLQTL
  fold higher apparent affinity than IFN-γR1 with DAF-ToFP: ~7 fold
